The text below walks through data of PMC5486021, “Biochemical and Computational Insights on a Novel Acid-Resistant and Thermal-Stable Glucose 1-Dehydrogenase” (International Journal of Molecular Sciences, 2017).

For one data set, the target named is T1, BzGDH (Bacillus sp. (in: firmicutes), UniProt A0A068FPP9).
T1 construct: full length, 261 residues (28 kDa predicted, 30 kDa SDS-PAGE, 120 kDa native), pET28a (NdeI/BamHI) in E. coli BL21(DE3), Ni-NTA purified, His tag removal not mentioned; N-terminus from primer MYSDLA
The data set can be described thus: NADH absorbance at […] nm, nonlinear Michaelis-Menten fit. In kind it is biochemical, Bacillus sp. ZJ. The settings on record: 100 mM sodium phosphate pH 8.0, 25 °C; 1 mM NAD; glucose 1-200 mM; kcat per subunit.

Data set [1] relates to T2, NC(=O)c1ccc[n+]([C@@H]2O[C@H](COP(=O)(O)OP(=O)(O)OC[C@H]3O[C@@H](n4cnc5c(N)ncnc54)[C@H](O)[C@@H]3O)[C@@H](O)[C@H]2O)c1.
T2 construct: full length, 261 residues (28 kDa predicted, 30 kDa SDS-PAGE, 120 kDa native), pET28a (NdeI/BamHI) in E. coli BL21(DE3), Ni-NTA purified, His tag removal not mentioned; N-terminus from primer MYSDLA
As to the kind of experiment: purified protein. In kind it is biochemical, Bacillus sp. ZJ. The settings on record: 100 mM sodium phosphate pH 8.0, 25 °C, glucose given as 200 µM (standard assay 200 mM), NAD 0.01-0.2 mM, kcat per subunit, varied: cofactor.

Data set [2] relates to T3, NC(=O)c1ccc[n+]([C@@H]2O[C@H](COP(=O)(O)OP(=O)(O)OC[C@H]3O[C@@H](n4cnc5c(N)ncnc54)[C@H](OP(=O)(O)O)[C@@H]3O)[C@@H](O)[C@H]2O)c1.
T3 construct: full length, 261 residues (28 kDa predicted, 30 kDa SDS-PAGE, 120 kDa native), pET28a (NdeI/BamHI) in E. coli BL21(DE3), Ni-NTA purified, His tag removal not mentioned; N-terminus from primer MYSDLA
The data set can be described thus: purified protein. In kind it is biochemical, Bacillus sp. ZJ. The settings on record: 100 mM sodium phosphate pH 8.0, 25 °C, glucose given as 200 µM (standard assay 200 mM), NADP 0.01-0.2 mM, kcat per subunit, varied: cofactor.

The target in data set [3] is NAD(P)-dependent glucose 1-dehydrogenase from Bacillus sp. ZJ (Bacillus sp. ZJ). The data set can be described thus: SEC; gel filtration on a Zorbax Bio-series GF-450 column; standards lysozyme (14.3 kDa), chicken ovalbumin (45 kDa), bovine serum albumin fraction V (67 kDa), goat IgG (150 kDa); native mass estimated 120 kDa against 30 kDa on SDS-PAGE.

On to `OC[C@H]1OC(O)[C@H](O)[C@@H](O)[C@@H]1O` (stereo partly drawn) [D-glucose], for which the Km at BzGDH worked out at 17.1 ± 0.946 mM.

Regarding BzGDH (Bacillus sp. (in: firmicutes)), in data set [1], the Michaelis constant (Km) stood at 0.072 ± 0.009 mM, the kcat is 84.5 ± 2.17 s⁻¹ and the kcat/Km came out at 1.17e+06 M⁻¹ s⁻¹. In data set [2], the Km was determined as 0.404 ± 0.088 mM, the catalytic constant (kcat) came out at 74 ± 2.68 s⁻¹ and the kcat/Km stood at 183000 M⁻¹ s⁻¹.

Turning to “NAD(P)-dependent glucose 1-dehydrogenase from Bacillus sp. ZJ (enzyme)”, in data set [3], the stoichiometry N is 4.
